Results taken from patent publication US20240391979A1 (ACHELOIS BIOPHARMA, published 2024).

How the values were obtained:
[1] = molecular target: Small Hepatitis B surface Antigen (S-HBsAg), HBV subtype ayw (Hepatitis B virus, subtype ayw, UniProt P03138 1-226); test: cell-based or functional assay
[2] = molecular target: Small Hepatitis B surface Antigen (S-HBsAg), HBV subtype not stated (Hepatitis B virus); test: cell-based or functional assay

Small Hepatitis B surface Antigen (S-HBsAg), HBV subtype ayw, sequence (P03138 164-389): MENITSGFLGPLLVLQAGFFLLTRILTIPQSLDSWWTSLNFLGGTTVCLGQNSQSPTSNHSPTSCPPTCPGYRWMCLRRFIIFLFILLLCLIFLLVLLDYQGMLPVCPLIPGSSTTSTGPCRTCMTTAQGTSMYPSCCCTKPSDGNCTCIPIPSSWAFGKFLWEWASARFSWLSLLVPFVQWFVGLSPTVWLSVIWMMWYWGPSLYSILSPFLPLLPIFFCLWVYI

B1: bivalent, soluble H015 (antibody, V domains shown)
VH: QVQLVESGGGVAQPGRSLRLSCAASGFSFSRHGMHWVRQAPGKGLEWVAGIWFDGTNDYYTDSVKGRFTISRDNSRSTLYLDINSLRAEDTAVYYCAREDPHLLIATLDLWGLGTLVTVSS
VL: DIQVTQSPSSLSAFVGDRVTITCRASQGLTSFINWYQQKPGRAPKLLISSASSLQRGVPSRFTASGSGTHFTLTISSLQPEDFATYYCQQSYGTPALAFGGGTKVDIK
For B1, the “IC50, in vitro HBV neutralization assay, HepG2-NTCP cells, ayw subtype” value [1] was 0.0836 nM and the “IC50, in vitro HDV neutralization in primary human hepatocytes (HDV RNA)” value [2] was 0.113 nM.
